Measured values: publication PMC5201418

Legend:
[1] = target: Trypanosoma brucei S-adenosylmethionine decarboxylase, wild type (Trypanosoma brucei)
[2] = target: TbAdoMetDC-W137A/M146A (Trypanosoma brucei)
[3] = target: TbAdoMetDC H172A (Trypanosoma brucei)
[4] = target: N-terminally truncated TbAdoMetDCΔ26 (Trypanosoma brucei)

Trypanosoma brucei S-adenosylmethionine decarboxylase, wild type (Trypanosoma brucei), sequence (P50244 1-85, tags left off, chain 1 of 2): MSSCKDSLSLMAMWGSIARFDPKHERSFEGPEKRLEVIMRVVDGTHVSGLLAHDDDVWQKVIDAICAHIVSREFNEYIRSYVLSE
Trypanosoma brucei S-adenosylmethionine decarboxylase, wild type (Trypanosoma brucei), sequence (P50244 86-370 limits assumed, chain 2 of 2): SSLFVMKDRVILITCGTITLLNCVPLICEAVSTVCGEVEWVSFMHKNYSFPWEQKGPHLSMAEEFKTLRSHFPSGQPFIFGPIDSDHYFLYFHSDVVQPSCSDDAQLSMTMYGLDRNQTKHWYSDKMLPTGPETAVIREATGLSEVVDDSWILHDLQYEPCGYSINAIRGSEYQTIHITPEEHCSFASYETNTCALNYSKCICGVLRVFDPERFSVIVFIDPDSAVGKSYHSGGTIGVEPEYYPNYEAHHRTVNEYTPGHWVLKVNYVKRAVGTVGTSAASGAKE

| Substance | kcat/Km of AdoMet decarboxylation (14C-AdoMet, 37°C) by the TbAdoMetDC/prozyme heterodimer, with 4 mM putrescine [1] [s^−1M^−1] | kcat/Km of AdoMet decarboxylation (14C-AdoMet, 37°C) by the TbAdoMetDC/prozyme heterodimer, without putrescine [1] [s^−1M^−1] | kcat/Km of AdoMet decarboxylation (14C-AdoMet, 37°C) by the TbAdoMetDC/prozyme heterodimer, with 4 mM putrescine [2] [s^−1M^−1] | kcat/Km of AdoMet decarboxylation (14C-AdoMet, 37°C) by the TbAdoMetDC/prozyme heterodimer, without putrescine [2] [s^−1M^−1] | kcat/Km of AdoMet decarboxylation (14C-AdoMet, 37°C) by the TbAdoMetDC/prozyme heterodimer, with 4 mM putrescine [3] [s^−1M^−1] | kcat/Km of AdoMet decarboxylation (14C-AdoMet, 37°C) by the TbAdoMetDC/prozyme heterodimer, without putrescine [3] [s^−1M^−1] | kcat/Km of AdoMet decarboxylation (14C-AdoMet, 37°C) by the TbAdoMetDC/prozyme heterodimer, with 4 mM putrescine [4] [s^−1M^−1] | kcat/Km of AdoMet decarboxylation (14C-AdoMet, 37°C) by the TbAdoMetDC/prozyme heterodimer, without putrescine [4] [s^−1M^−1] |
| --- | --- | --- | --- | --- | --- | --- | --- | --- |
| prozyme-M148'A/Y152'A (natural protein) | 660 | 16 | – | – | – | – | – | – |
| Trypanosoma brucei prozyme, wild type (natural protein) | 3200 | 2600 | 87 | 5 | 2100 | 93 | 7.6 | 2.2 |
